Assay results: US20150139990A1 (DAINIPPON SUMITOMO PHARMA, published 2015)

T1: human CD81 mutant S168T (human, UniProt P60033 1-236, limits assumed)
T1 construct: as m30; not shown: C-terminal V5 and 6xHis tags
T1 sequence: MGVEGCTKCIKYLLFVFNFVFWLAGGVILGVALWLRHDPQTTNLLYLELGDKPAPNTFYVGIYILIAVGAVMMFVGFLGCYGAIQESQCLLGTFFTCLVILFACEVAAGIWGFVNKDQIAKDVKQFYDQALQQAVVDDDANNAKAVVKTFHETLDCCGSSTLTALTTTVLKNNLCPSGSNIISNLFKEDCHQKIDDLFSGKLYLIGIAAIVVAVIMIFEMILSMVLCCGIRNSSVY

T2: human CD81 mutant V135L (human, UniProt P60033 1-236, limits assumed)
T2 construct: as m30; not shown: C-terminal V5 and 6xHis tags
T2 sequence: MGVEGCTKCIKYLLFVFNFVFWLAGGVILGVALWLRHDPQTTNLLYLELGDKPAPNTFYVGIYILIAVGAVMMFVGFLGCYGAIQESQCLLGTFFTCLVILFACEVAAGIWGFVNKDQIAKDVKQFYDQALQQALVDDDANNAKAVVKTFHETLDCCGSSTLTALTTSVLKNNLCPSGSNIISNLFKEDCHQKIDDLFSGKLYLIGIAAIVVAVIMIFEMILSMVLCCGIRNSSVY

T3: human CD81 mutant V169L (human, UniProt P60033 1-236, limits assumed)
T3 construct: as m30; not shown: C-terminal V5 and 6xHis tags
T3 sequence: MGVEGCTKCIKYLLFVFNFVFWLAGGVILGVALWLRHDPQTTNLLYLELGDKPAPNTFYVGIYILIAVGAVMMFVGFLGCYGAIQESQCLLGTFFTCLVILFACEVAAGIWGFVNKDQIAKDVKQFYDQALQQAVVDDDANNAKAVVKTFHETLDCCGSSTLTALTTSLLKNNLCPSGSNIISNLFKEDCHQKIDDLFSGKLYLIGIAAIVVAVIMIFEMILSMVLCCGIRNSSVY

T4: human CD81 mutant D137E (human, UniProt P60033 1-236, limits assumed)
T4 construct: as m30; not shown: C-terminal V5 and 6xHis tags
T4 sequence: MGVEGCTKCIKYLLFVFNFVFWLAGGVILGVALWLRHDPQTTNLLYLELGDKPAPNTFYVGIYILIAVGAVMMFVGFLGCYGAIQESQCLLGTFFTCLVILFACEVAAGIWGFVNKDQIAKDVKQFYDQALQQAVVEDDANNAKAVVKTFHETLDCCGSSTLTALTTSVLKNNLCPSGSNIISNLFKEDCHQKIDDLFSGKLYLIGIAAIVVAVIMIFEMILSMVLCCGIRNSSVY

T5: human CD81 mutant G158A (human, UniProt P60033 1-236, limits assumed)
T5 construct: as m30; not shown: C-terminal V5 and 6xHis tags
T5 sequence: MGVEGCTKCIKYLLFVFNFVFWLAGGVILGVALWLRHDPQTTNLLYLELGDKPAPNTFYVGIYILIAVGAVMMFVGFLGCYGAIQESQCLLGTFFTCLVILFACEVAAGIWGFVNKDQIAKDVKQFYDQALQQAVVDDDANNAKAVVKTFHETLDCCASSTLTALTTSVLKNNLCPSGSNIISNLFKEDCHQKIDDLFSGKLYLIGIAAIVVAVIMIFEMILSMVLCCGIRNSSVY

T6: human CD81 mutant H151R (human, UniProt P60033 1-236, limits assumed)
T6 construct: as m30; also called H151B; not shown: C-terminal V5 and 6xHis tags
T6 sequence: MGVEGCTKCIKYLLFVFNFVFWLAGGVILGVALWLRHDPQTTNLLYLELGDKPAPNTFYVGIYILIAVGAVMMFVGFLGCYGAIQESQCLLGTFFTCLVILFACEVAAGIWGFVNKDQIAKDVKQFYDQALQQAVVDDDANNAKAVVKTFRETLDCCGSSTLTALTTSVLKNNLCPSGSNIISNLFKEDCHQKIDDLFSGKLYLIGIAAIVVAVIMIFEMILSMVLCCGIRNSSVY

T7: human CD81 mutant A164V (human, UniProt P60033 1-236, limits assumed)
T7 construct: as m30; not shown: C-terminal V5 and 6xHis tags
T7 sequence: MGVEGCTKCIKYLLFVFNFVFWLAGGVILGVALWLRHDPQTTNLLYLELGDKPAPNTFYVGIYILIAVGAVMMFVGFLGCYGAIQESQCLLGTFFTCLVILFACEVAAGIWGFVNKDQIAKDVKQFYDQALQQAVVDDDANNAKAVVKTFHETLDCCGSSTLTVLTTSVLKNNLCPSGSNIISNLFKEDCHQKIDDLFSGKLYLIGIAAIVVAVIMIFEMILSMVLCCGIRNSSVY

T8: human CD81 mutant V135A (human, UniProt P60033 1-236, limits assumed)
T8 construct: as m30; not shown: C-terminal V5 and 6xHis tags
T8 sequence: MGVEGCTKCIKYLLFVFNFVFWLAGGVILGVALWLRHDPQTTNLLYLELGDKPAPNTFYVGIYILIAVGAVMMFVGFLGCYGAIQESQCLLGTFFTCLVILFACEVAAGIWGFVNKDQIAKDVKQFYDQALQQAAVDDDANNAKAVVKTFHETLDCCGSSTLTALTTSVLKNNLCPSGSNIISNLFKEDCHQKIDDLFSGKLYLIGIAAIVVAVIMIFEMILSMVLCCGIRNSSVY

T9: human CD81 mutant T163A (human, UniProt P60033 1-236, limits assumed)
T9 construct: as m30; not shown: C-terminal V5 and 6xHis tags
T9 sequence: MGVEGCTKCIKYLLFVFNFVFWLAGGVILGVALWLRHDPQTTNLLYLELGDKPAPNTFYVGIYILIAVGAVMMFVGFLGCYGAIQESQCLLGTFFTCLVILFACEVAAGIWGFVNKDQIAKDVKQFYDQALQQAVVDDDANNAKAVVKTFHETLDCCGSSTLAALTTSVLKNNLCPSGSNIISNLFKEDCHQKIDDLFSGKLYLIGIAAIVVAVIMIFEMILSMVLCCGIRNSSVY

T10: human CD81 on CD81-expressing cells (Jurkat E6.1, human PBMC, Ramos) (human, UniProt P60033 1-236)
T10 sequence: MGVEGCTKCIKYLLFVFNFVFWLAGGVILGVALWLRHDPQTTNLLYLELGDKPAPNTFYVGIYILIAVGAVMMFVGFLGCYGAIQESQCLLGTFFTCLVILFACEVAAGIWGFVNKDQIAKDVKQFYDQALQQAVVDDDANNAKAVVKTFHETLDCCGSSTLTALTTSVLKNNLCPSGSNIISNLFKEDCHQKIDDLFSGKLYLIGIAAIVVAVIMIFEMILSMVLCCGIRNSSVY


Tests used:
human CD81 mutant S168T = target: T1, human CD81 mutant S168T; assay: ELISA
human CD81 mutant V135L = target: T2, human CD81 mutant V135L; assay: ELISA
human CD81 mutant V169L = target: T3, human CD81 mutant V169L; assay: ELISA
human CD81 mutant D137E = target: T4, human CD81 mutant D137E; assay: ELISA
human CD81 mutant G158A = target: T5, human CD81 mutant G158A; assay: ELISA
human CD81 mutant H151R = target: T6, human CD81 mutant H151R; assay: ELISA
human CD81 mutant A164V = target: T7, human CD81 mutant A164V; assay: ELISA
human CD81 mutant V135A = target: T8, human CD81 mutant V135A; assay: ELISA
human CD81 mutant T163A = target: T9, human CD81 mutant T163A; assay: ELISA
[1] = target: T10, human CD81 on CD81-expressing cells …; assay: cell-based or functional assay

Binder	relative binding affinity (human CD81 mutant S168T)	relative binding affinity (human CD81 mutant V135L)	relative binding affinity (human CD81 mutant V169L)	relative binding affinity (human CD81 mutant D137E)	relative binding affinity (human CD81 mutant G158A)	relative binding affinity (human CD81 mutant H151R)	relative binding affinity (human CD81 mutant A164V)	relative binding affinity (human CD81 mutant V135A)	relative binding affinity (human CD81 mutant T163A)	Jurkat chemotaxis (% of control IgG4) at 0.001 µg/mL [1]	Jurkat chemotaxis (% of control IgG4) at 0.01 µg/mL [1]	Jurkat chemotaxis (% of control IgG4) at 0.1 µg/mL [1]	Jurkat chemotaxis (% of control IgG4) at 1 µg/mL [1]	Jurkat chemotaxis (% of control IgG4) at 10 µg/mL [1]
002-A07 IgG4 antibody (antibody, human IgG4 S228P, lambda light chain) heavy: not shown light: QSVLTQPPSASGTPGQRVTISCTGSTSNIGAGYDTHWYQQLPGTAPKLLIYGNSNRPSGVPDRFSGSKSGTSASLAISGLRSEDEADYYCQSYDTNLSVWVFGGGTKLTVLGQPKAAPSVTLFPPSSEELQANKATLVCLISDFYPGAVTVAWKADSSPVKAGVETTTPSKQSNNKYAASSYLSLTPEQWKSHRSYSCQVTHEGSTVEKTVAPTECS	< 20%	< 20%	< 20%	< 20%	< 20%	< 20%	< 20%	< 20%	< 20%	90%	93%	21%	-2%	3%
002-A07 N113S (antibody, human IgG4 S228P, lambda, V domains shown, IgG4 S228P; glycosylation site mutant of 002-A07 VL) VH: EVQLLESGGGLVQPGGSLRLSCAASGFTFSSNYMSWVRQAPGKGLEWVSYISSSSTYTDYADSVKGRFTISRDNSKNTLYLQMNSLRAEDTAVYYCARYSYGRDNFDYWGQGTLVTVSS VL: QSVLTQPPSASGTPGQRVTISCTGSTSNIGAGYDTHWYQQLPGTAPKLLIYGNSNRPSGVPDRFSGSKSGTSASLAISGLRSEDEADYYCQSYDTSLSVWVFGGGTKLTVLG	< 20%	< 20%	< 20%	< 20%	< 20%	< 20%	< 20%	< 20%	< 20%	99%	101%	40%	13%	12%
002-A07 N113Q (antibody, human IgG4 S228P, lambda, V domains shown, IgG4 S228P; glycosylation site mutant of 002-A07 VL) VH: EVQLLESGGGLVQPGGSLRLSCAASGFTFSSNYMSWVRQAPGKGLEWVSYISSSSTYTDYADSVKGRFTISRDNSKNTLYLQMNSLRAEDTAVYYCARYSYGRDNFDYWGQGTLVTVSS VL: QSVLTQPPSASGTPGQRVTISCTGSTSNIGAGYDTHWYQQLPGTAPKLLIYGNSNRPSGVPDRFSGSKSGTSASLAISGLRSEDEADYYCQSYDTQLSVWVFGGGTKLTVLG	< 20%	< 20%	< 20%	< 20%	< 20%	< 20%	< 20%	< 20%	< 20%	104%	99%	37%	13%	12%
002-A07 N113G (antibody, human IgG4 S228P, lambda, V domains shown, IgG4 S228P; glycosylation site mutant of 002-A07 VL) VH: EVQLLESGGGLVQPGGSLRLSCAASGFTFSSNYMSWVRQAPGKGLEWVSYISSSSTYTDYADSVKGRFTISRDNSKNTLYLQMNSLRAEDTAVYYCARYSYGRDNFDYWGQGTLVTVSS VL: QSVLTQPPSASGTPGQRVTISCTGSTSNIGAGYDTHWYQQLPGTAPKLLIYGNSNRPSGVPDRFSGSKSGTSASLAISGLRSEDEADYYCQSYDTGLSVWVFGGGTKLTVLG	< 20%	< 20%	< 20%	< 20%	< 20%	< 20%	< 20%	< 20%	< 20%	99%	101%	38%	13%	7%
003-D07 (antibody, human IgG4 S228P, lambda, V domains shown, IgG4 S228P) VH: EVQLLESGGGLVQPGGSLRLSCAASGFTFSSNYMSWVRQAPGKGLEWVSYISSSSTYTDYADSVKGRFTISRDNSKNTLYLQMNSLRAEDTAVYYCARYSYDRDNFDYWGQGTLVTVSS VL: QSVLTQPFSASGTPGQRVTISCTGSTSNIGAGYDTHWYQHLPGTAPKLLIYGNSNRPSGVPDRFSGSKSGTSASLAISGLRSEDEADYYCQSYDTNLSVWVFGGGTKLTVLG		< 20%	< 20%			< 20%	< 20%	< 20%		87%	79%	42%	-5%	-9%
